Experimental data published in the supplement of paper PMC12042874.
± gives the uncertainty stated by the source.

Assay: amyloid nucleation score (Sup35N fusion, yeast selection) (log enrichment); library NNK3; higher = more nucleation; inactive = no reads after selection
How it was run: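 Random libraries were run with three technical output replicates. In each, psi-negative yeast expressing Sup35N fused to peptides of 20 random codons were induced 24 hours with 100 μM copper sulfate and grown 7 days at 30°C on medium lacking adenine and uracil, and input and output plasmid inserts were Illumina-sequenced. The nucleation score is the DiMSum log enrichment of output over input reads, centred on the mode score of non-aggregating sequences, and sequences under 100 input reads were excluded.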

HLCWNRQGNDRRELKSRWRK
amyloid nucleation score: inactive

HLDQNLWPKQKQAHTLRTKW
amyloid nucleation score: inactive

HLLTAVILITIGVNRVTWWG
amyloid nucleation score: inactive

HLSRNVRLS
amyloid nucleation score: inactive

HLSTRLARFPLL
amyloid nucleation score: inactive

HMDSWSYWVIVV
amyloid nucleation score: inactive

HNCLVLVCDTCLSVYWNFSS
amyloid nucleation score: 2.83 ± 0.052

HNDSYRMWGRGPPIVLT
amyloid nucleation score: inactive

HNITPESAKVCKVRRCLGSD
amyloid nucleation score: 0.619 ± 0.2

HNMNR
amyloid nucleation score: inactive

HNPVG
amyloid nucleation score: 1.23 ± 0.08

HNRLSQVTDQLGRLVSRSLR
amyloid nucleation score: inactive

HNSQLWLVPSVFTKRLCHIN
amyloid nucleation score: inactive

HPWEARGHPVLHERRNLHSI
amyloid nucleation score: inactive

HQGFE
amyloid nucleation score: inactive

HQVKVIVCCVTYVVQYVVMM
amyloid nucleation score: inactive

HRHNVGLCCAGDWHLVELGS
amyloid nucleation score: 2.06 ± 0.064

HRIRVVENLPHCVLSSRMPL
amyloid nucleation score: inactive

HRREMSHCKREPWKSINFYW
amyloid nucleation score: inactive

HSAVE
amyloid nucleation score: inactive

HSDMLDYVSMVFFMVIRAGM
amyloid nucleation score: inactive

HSFREYKRVNLYYPFYKDCL
amyloid nucleation score: 0.467 ± 0.13

HSRGENR
amyloid nucleation score: inactive

HSRLFLGNVTCYWVHEVSLI
amyloid nucleation score: inactive

HSSKSTGTYFGNMS
amyloid nucleation score: inactive

HSWNFGVCG
amyloid nucleation score: 0.229 ± 0.2

HTESTGLSTPWVHL
amyloid nucleation score: inactive

HTFYFYSMSSGFKRHETTSG
amyloid nucleation score: inactive

HTGMHCTMGESRTSV
amyloid nucleation score: 0.375 ± 0.18

HTILENFSSLVVMRDGRRNG
amyloid nucleation score: -0.275 ± 0.52

HTTIQETFVRIPRLCRWHRR
amyloid nucleation score: inactive

HVGCLIYDIQCETPGSHPSR
amyloid nucleation score: inactive

HVIFFYILAFYNHSMGRTAV
amyloid nucleation score: inactive

HVMGANREPF
amyloid nucleation score: inactive

HVNSMA
amyloid nucleation score: inactive

HVTIYGPET
amyloid nucleation score: inactive

HVVVFDYLLSVLCIVDRVEG
amyloid nucleation score: inactive

HWGHVHLVIRLPVMPDSDNR
amyloid nucleation score: inactive

HWGTMNGSPSFFPITVRCGG
amyloid nucleation score: inactive

HWIHGRR
amyloid nucleation score: inactive

HWYGTMLKLFNVLKPMGPKI
amyloid nucleation score: inactive

HYINYINLQMVYFDVGQMYC
amyloid nucleation score: 2.96 ± 0.062

HYKKYITPVQRVGCADPSHC
amyloid nucleation score: inactive

HYLHRG
amyloid nucleation score: inactive

HYMLGSLSPVWLFFL
amyloid nucleation score: inactive

HYNVFGGRLSSSRNMYKGVY
amyloid nucleation score: inactive

HYRIESTVLE
amyloid nucleation score: -0.772 ± 0.8

HYSAREWLLLCIMVCDVVVW
amyloid nucleation score: inactive

HYTHSNLQAPDPH
amyloid nucleation score: inactive

IAFGVLVDDSDCCIDTYEEE
amyloid nucleation score: inactive

IAGCMGNCGLCRAMVICWMN
amyloid nucleation score: -0.409 ± 0.7

IALGNVRISRYRVLWAYLSS
amyloid nucleation score: inactive

IALTTRVN
amyloid nucleation score: inactive

IANTHFIIM
amyloid nucleation score: 1.14 ± 0.13

IATCTRFIDYVYRDVSSGPC
amyloid nucleation score: 0.725 ± 0.11

IAVERMIGLLPGSYF
amyloid nucleation score: inactive

IAVPRWKDSDTQKVV
amyloid nucleation score: inactive

ICELPNIYDVS
amyloid nucleation score: inactive

ICEVNCGLVIWWVRRFEGAS
amyloid nucleation score: inactive

ICRHLSIGG
amyloid nucleation score: inactive

ICRLRPLSWMWFAAYSCLFN
amyloid nucleation score: inactive

ICYPLFFCNAEWRFEEPCVL
amyloid nucleation score: 2.57 ± 0.075

ICYTYNGPRSSVGVVLLGQ
amyloid nucleation score: inactive

IDIESL
amyloid nucleation score: inactive

IDISIL
amyloid nucleation score: inactive

IDRVMCNHDSIRQQLSLLSV
amyloid nucleation score: inactive

IDVMEYMLASYRVSWYRGLA
amyloid nucleation score: inactive

IDVYLGLYMRRVSVLETHCS
amyloid nucleation score: 2.02 ± 0.087

IDVYRFRKGA
amyloid nucleation score: inactive

IEACSVSM
amyloid nucleation score: 0.059 ± 0.98

IENQSRCLLTNVATVN
amyloid nucleation score: inactive

IESSYFNNNRFGRHVVKQVG
amyloid nucleation score: inactive

IETGSKYVAVRARLQSVMDG
amyloid nucleation score: inactive

IEYWFASRTFWSCRNMVRH
amyloid nucleation score: -0.342 ± 0.98

IFCGPCLSSYRPKWTGMTSY
amyloid nucleation score: 2.12 ± 0.06

IFCKPWGSSFRIEPVAGTWI
amyloid nucleation score: inactive

IFFSIVSWKDAGCSEAINCQ
amyloid nucleation score: inactive

IFFVTVYQTNHHKSTLRCTN
amyloid nucleation score: 2.33 ± 0.087

IFGSAFFRYYLCITQFCEYS
amyloid nucleation score: inactive
